From US20200010522A1 (SALUBRIS BIOTHERAPEUTICS, published 2020)

Biological target: T1, monkey HER3 antigen (monkey)
T1 construct: also called HER3 (monkey)
Assay: BIAcore (SPR)

Kd: 0.397 nM
B1: anti-HER3 mAb/NRG-1 fusion protein (recombinant fusion protein, with Fc mutations) (antibody, human IgG1, kappa)
heavy: QVQLQQWGAGLLKPSETLSLTCAVYGGSFSGYYWSWIRQPPGKGLEWIGEINHSGSTNYNPSLKSRVTISVETSKNQFSLKLSSVTAADTAVYYCARDKWTWYFDLWGRGTLVTVSSASTKGPSVFPLAPSSKSTSGGTAALGCLVKDYFPEPVTVSWNSGALTSGVHTFPAVLQSSGLYSLSSVVTVPSSSLGTQTYICNVNHKPSNTKVDKRVEPKSCDKTHTCPPCPAPEFLGGPAVFLFPPKPKDTLMISRTPEVTCVVVDVSHEDPEVKFNWYVDGVEVHNAKTKPREEQYNSTYRVVSVLTVLHQDWLNGKEYKCKVSNKALPAPIEKTISKAKGQPREPQVYTLPPSREEMTKNQVSLTCLVKGFYPSDIAVEWESNGQPENNYKTTPPVLDSDGSFFLYSKLTVDKSRWQQGNVFSCSVMHEALHAHYTQKSLSLSPGKGGGGSGGGGSSHLVKCAEKEKTFCVNGGECFMVKDLSNPSRYLCKCPNEFTGDRCQNYVMASFYKAEELYQ
light: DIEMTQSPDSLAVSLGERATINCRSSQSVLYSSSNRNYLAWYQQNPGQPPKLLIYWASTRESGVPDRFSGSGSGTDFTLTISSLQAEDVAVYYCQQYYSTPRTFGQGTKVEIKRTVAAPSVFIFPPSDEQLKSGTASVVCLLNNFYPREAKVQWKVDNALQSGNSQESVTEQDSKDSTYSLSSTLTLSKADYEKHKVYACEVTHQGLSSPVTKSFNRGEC
notes: Made in CHO-derived HD-BIOP3 cells; also called the recombinant fusion protein disclosed herein; recombinant anti-HER3 mAb/NRG-1 fusion protein; copies: 2 + 2
